# Results from publication PMC7457611 (bioRxiv, 2020).
# Molecular target: SARS-CoV-2 spike receptor-binding domain (RBD), residues 331-524 (SARS-CoV-2, early isolate GenBank …, UniProt P0DTC2)
# Assay: SPR
row,Binder,binding result
1,"C105 IgG (antibody, V domains shown) VH: QVQLVESGGGLIQPGGSLRLSCAASGFTVSSNYMSWVRQAPGKGLEWVSVIYSGGSTYYADSVKGRFTISRDNSKNTLYLQMNSLRAEDTAVYYCARGEGWELPYDYWGQGTLVTVSS VL: QSALTQPPSASGSPGQSVTISCTGTSSDVGGYKYVSWYQQHPGKAPKLMIYEVSKRPSGVPDRFSGSKSGNTASLTVSGLQAEDEADYYCSSYEGSNNFVVFGGGTKLTVL",binds
2,"C110 IgG (antibody, V domains shown) VH: QVQLQQSGAEVKKPGESLKISCKGSGYSFTSYWIGWVRQMPGKGLEWMGIIYPGDSDTRYSPSFQGQVTISADKSISTAYMQWSSLKASDTAMYYCARSFRDDPRIAVAGPADAFDIWGQGTMVTVSS VL: DIQMTQSPSTLSASVGDRVTITCRASQSISYWLAWYQQKPGKAPKLLIYQASSLESGVPSRFSGSESGTEFTLTISSLQPDDFATYYCQQYNSYPYTFGQGTKLEIK",binds
3,"C119 IgG (antibody, V domains shown) VH: QVQLVQSGAEVKKPGASVKVSCKASGYTFTSYYMHWVRQAPGQGLEWMGIINPSGGSTSYAQKLQGRVTMTRDTSTSTVYMELSSLRSEDTAVYYCARANHETTMDTYYYYYYMDVWGKGTTVTVSS VL: QSALTQPASVSGSPGQSITISCTGTSSDVGGYKYVSWYQRHPGKAPKLMIYDVSNRPSGVSNRFSGSKSGNTASLTISGLQAEDEADYYCSSYTSSSTSVVFGGGTQLTVL",binds
4,"C002 IgG (antibody, V domains shown) VH: EVQLVESGGGVVQPGRSLRLSCAASGFTFSIYGMHWVRQAPGKGLEWVAVISYDGSNKYYADSVKGRFTISRDNSKNTLYLQMNSLRAEDTAVYYCAKEGRPSDIVVVVAFDYWGQGTLVTVSS VL: not shown",binds
5,"C104 IgG (antibody, V domains shown) VH: QVQLQQWGAGLLKPSETLSLSCAVYGGSLSGYYWSWIRQPPGKGLEWIGEINHFGSTGYNPSLKSRVTISVDTSKSQFSVKLSSVTAADTAVYYCARKPLLYSNLSPGAFDIWGQGTMVTVSS VL: EIVLTQSPGTVSLSPGERATLSCWASQSVSASYLAWYQQKPGQAPRLLIYGASSRATGIPDRFSGSGSGTDFTLTISRLEPEDFAVYYCQQYGTTPRTFGGGTKVEIK",binds
6,"C121 IgG (antibody, V domains shown) VH: not shown VL: QSALTQPASVSGSPGQSITISCTGTSSDVGSYNLVSWYQQHPGKAPKLMIYEGSKRPSGVSNRFSGSKSGNTASLTISGLQAEDEADYYCCSYAGSSTLVFGGGTKLTVL",binds
